Measurements reported in publication PMC4497409.

B1: Biotinylated human Norrin wild-type (pHL-Avitag3 construct) [modified: biotin on the C-terminal BirA recognition sequence (in vivo biotinylation); biotin on the C-terminal BirA recognition sequence (in vivo … (parent)
chain 1: KTDSSFIMDSDPRRCMRHHYVDSISHPLYKCSSKMVLLARCEGHCSQASRSEPLVSFSTVLKQPFRSSCHCCRPQTSKLKALRLRCSGGMRLTATYRYILSCHCEECNS
chain 2: ERRCDPIRISMCQNLGYNVTKMPNLVGHELQTDAELQLTTFTPLIQYGCSSQLQFFLCSVYVPMCTEKINIPIGPCGGMCLSVKRRCEPVLKEFGFAWPESLNCSKFPPQNDHNHMCMEGPGDEEVPLPHKTPIQPGE

Variants of: B1
Test: SPR
Conditions: with Frizzled4 cysteine-rich domain (Fz4CRD), Norrin mutant immobilized on CM5 chip, Fz4CRD as analyte, 1:1 Langmuir binding model

Variant	screen value (Surface: 435 RU (WT surface in panel A: 336 RU)) [RU]	Kd (Surface: 435 RU) [nM]	screen value (Surface: 325 RU (WT surface in panel A: 336 RU)) [RU]	Kd (Surface: 325 RU) [nM]
chain 1 KTDSSFIMDSDPRRCMRHHYVDSISHPLYKCSSKMVLLARCEGHCSQASRSEPLVSFSTVLKQPFRSSCHCCRPQTSKLKALRLRCSGGNRSTATYRYILSCHCEECNS [chain 1 M90N L92S]	78	1060	–	–
chain 1 KTDSSFIMDSDPRRCMRHHYVDSISHPNYSCSSKMVLLARCEGHCSQASRSEPLVSFSTVLKQPFRSSCHCCRPQTSKLKALRLRCSGGMRLTATYRYILSCHCEECNS [chain 1 L28N K30S]	–	–	122	1250
